{"source": "patent US20090035322A1", "about": "(Regeneron, published 2009)", "key": {"[1]": {"target": "T1, mutant human CD20 #1 (Y77F) (human, UniProt P11836 1-297)", "T1 construct": "Human residues replaced by mouse residues; stably expressed on MG87 cells", "T1 sequence": "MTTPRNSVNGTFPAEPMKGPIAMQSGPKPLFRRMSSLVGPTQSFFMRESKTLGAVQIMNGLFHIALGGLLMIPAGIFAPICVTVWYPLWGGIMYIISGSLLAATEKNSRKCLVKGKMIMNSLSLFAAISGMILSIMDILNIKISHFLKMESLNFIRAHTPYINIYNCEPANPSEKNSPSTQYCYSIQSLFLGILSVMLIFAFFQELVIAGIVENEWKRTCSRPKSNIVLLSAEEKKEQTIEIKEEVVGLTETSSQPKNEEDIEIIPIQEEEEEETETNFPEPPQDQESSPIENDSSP", "test": "FACS, mutant-hCD20 MG87 cells; 100%=best antibody", "description": "(§1) Briefly, approximately 1×10⁶ cells from each stably transfected cell line expressing a mutant human CD20 were collected and incubated with each anti-human antibody, at 10 μg/ml, on ice for 1 hr, followed by incubation with APC-conjugated goat anti-human IgG (Jackson Immunolabs), at 10 μg/ml, on ice for 45 min. For each antibody, binding to each mutant human CD20 was assessed by flow cytometry."}, "[2]": {"target": "T2, mutant human CD20 #8 (Y77F, N163D, N166D) (human, UniProt P11836 1-297)", "T2 construct": "Stably expressed on MG87 cells", "T2 chain": "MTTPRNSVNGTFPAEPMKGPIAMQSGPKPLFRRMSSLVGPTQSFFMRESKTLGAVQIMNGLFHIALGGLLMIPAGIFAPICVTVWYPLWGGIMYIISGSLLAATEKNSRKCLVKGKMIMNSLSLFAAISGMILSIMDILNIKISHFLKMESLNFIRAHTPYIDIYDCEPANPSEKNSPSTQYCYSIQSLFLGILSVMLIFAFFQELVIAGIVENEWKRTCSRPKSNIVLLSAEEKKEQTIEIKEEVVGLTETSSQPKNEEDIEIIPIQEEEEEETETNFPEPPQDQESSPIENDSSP", "test": "FACS, mutant-hCD20 MG87 cells; 100%=best antibody", "description": "as §1"}, "[3]": {"target": "T3, mutant human CD20 #10 (A157V) (human, UniProt P11836 1-297)", "T3 construct": "Stably expressed on MG87 cells", "T3 sequence": "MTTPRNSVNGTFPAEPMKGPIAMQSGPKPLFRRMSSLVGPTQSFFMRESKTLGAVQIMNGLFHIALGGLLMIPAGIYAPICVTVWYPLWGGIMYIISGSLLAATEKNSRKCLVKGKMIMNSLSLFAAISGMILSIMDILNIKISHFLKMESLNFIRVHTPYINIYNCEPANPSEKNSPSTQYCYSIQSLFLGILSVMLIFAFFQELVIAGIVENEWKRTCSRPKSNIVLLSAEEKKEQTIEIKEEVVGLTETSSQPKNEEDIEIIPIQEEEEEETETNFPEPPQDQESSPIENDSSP", "test": "FACS, mutant-hCD20 MG87 cells; 100%=best antibody", "description": "as §1"}, "[4]": {"target": "T4, mutant human CD20 #4 (N166D) (human, UniProt P11836 1-297)", "T4 construct": "Stably expressed on MG87 cells", "T4 sequence": "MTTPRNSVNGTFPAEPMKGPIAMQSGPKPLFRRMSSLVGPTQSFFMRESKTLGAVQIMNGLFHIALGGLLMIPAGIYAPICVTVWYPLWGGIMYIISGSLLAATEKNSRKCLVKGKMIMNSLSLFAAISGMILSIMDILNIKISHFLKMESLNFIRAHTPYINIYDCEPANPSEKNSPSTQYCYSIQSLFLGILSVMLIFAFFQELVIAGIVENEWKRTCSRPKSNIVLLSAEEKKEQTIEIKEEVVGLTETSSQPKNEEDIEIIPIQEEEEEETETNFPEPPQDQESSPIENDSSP", "test": "FACS, mutant-hCD20 MG87 cells; 100%=best antibody", "description": "as §1"}, "[5]": {"target": "T5, mutant human CD20 #2 (N163D) (human, UniProt P11836 1-297)", "T5 construct": "Stably expressed on MG87 cells", "T5 sequence": "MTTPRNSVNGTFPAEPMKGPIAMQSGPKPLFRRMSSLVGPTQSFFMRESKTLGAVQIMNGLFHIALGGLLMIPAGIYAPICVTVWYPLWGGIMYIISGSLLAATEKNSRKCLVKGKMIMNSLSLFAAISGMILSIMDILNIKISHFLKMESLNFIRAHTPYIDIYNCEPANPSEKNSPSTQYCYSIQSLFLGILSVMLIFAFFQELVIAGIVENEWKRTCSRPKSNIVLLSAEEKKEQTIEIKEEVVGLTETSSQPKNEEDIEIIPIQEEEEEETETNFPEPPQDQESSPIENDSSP", "test": "FACS, mutant-hCD20 MG87 cells; 100%=best antibody", "description": "as §1"}, "[6]": {"target": "T6, mutant human CD20 #6 (Y77F, N166D) (human, UniProt P11836 1-297)", "T6 construct": "Stably expressed on MG87 cells", "T6 chain": "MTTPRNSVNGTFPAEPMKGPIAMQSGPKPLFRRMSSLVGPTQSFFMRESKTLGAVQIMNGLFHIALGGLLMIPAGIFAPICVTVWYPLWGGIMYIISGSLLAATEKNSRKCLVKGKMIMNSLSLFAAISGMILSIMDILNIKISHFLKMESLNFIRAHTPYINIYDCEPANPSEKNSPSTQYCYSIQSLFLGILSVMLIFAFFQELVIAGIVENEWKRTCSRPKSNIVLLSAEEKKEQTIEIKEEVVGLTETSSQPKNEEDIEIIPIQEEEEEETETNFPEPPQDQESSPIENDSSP", "test": "FACS, mutant-hCD20 MG87 cells; 100%=best antibody", "description": "as §1"}, "[7]": {"target": "T7, mutant human CD20 #3 (A170S, P172S) (human, UniProt P11836 1-297)", "T7 construct": "Stably expressed on MG87 cells", "T7 chain": "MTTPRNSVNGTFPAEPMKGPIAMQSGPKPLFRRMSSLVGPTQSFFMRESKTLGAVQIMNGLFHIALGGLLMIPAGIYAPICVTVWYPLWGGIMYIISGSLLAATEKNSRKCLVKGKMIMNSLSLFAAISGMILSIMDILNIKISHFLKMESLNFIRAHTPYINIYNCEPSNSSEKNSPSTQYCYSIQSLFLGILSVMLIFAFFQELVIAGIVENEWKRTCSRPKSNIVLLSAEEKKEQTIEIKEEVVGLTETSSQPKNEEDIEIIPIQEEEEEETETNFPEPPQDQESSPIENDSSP", "test": "FACS, mutant-hCD20 MG87 cells; 100%=best antibody", "description": "as §1"}, "[8]": {"target": "T8, mutant human CD20 #7 (Y77F, N163D) (human, UniProt P11836 1-297)", "T8 construct": "Stably expressed on MG87 cells", "T8 chain": "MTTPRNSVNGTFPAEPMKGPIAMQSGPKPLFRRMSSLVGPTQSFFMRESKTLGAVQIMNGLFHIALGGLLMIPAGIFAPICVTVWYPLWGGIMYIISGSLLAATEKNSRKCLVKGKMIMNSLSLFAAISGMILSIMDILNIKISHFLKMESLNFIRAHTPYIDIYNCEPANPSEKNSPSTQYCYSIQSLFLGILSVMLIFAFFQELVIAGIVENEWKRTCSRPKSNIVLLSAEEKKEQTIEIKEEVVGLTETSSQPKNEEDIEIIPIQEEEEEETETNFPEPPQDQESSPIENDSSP", "test": "FACS, mutant-hCD20 MG87 cells; 100%=best antibody", "description": "as §1"}, "[9]": {"target": "T9, mutant human CD20 #9 (N163D, N166D) (human, UniProt P11836 1-297)", "T9 construct": "Stably expressed on MG87 cells", "T9 chain": "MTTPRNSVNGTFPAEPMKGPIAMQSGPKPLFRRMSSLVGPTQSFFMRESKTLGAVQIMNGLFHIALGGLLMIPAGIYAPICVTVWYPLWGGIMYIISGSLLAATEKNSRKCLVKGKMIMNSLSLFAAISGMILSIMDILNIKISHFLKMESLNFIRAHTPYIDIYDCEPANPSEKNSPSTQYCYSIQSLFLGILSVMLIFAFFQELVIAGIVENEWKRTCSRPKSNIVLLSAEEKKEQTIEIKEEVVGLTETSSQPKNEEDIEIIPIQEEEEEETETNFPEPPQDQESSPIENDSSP", "test": "FACS, mutant-hCD20 MG87 cells; 100%=best antibody", "description": "as §1"}, "human CD20 [10]": {"target": "T10, human CD20 (human, UniProt P11836 1-297)", "T10 sequence": "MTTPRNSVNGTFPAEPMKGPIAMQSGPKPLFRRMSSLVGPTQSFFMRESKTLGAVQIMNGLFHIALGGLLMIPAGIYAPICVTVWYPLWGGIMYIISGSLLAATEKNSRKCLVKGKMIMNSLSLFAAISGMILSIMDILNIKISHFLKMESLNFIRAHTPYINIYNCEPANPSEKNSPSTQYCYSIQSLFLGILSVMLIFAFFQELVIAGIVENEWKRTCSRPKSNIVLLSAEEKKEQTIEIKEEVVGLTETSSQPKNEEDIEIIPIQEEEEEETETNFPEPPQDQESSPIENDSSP", "test": "cell-based or functional assay"}, "human CD20 [11]": {"target": "T10, human CD20", "test": "flow cytometry, hCD20-transfected MG87 cells", "description": "Briefly, parental MG87 and human CD20-transfected MG87 cells were incubated for 30 min at 4° C. with each of the 15 human antibodies and the two control antibodies, followed by incubation with PE-conjugated anti-human IgG antibody. Binding was assessed by flow cytometry. Fluorescence intensities were compared with binding to the parental cell line and control isotype-matched sample."}, "human CD20 [12]": {"target": "T10, human CD20", "test": "cell-based or functional assay", "remark": "listed apart in the source"}, "human CD20 [13]": {"target": "T10, human CD20", "test": "cell-based or functional assay", "remark": "listed apart in the source"}, "human CD20 [14]": {"target": "T10, human CD20", "test": "cell-based or functional assay", "remark": "listed apart in the source"}}, "note": "Like-named read-outs stand apart in the source and are kept apart here.", "data": [{"binder": "2F2 (antibody, V domains shown) VH: EVQLVESGGGLVQPGRSLRLSCAASGFTFNDYAMHWVRQAPGKGLEWVSTISWNSGSIGYADSVKGRFTISRDNAKKSLYLQMNSLRAEDTALYYCAKDIQYGNYYYGMDVWGQGTTVTVSS VL: EIVLTQSPATLSLSPGERATLSCRASQSVSSYLAWYQQKPGQAPRLLIYDASNRATGIPARFSGSGSGTDFTLTISSLEPEDFAVYYCQQRSNWPITFGQGTRLEIK", "values": [{"measurement": "Percent of Binding to Mutant Human CD20", "setting": "[1]", "result": 60, "unit": "%"}, {"measurement": "Percent of Binding to Mutant Human CD20", "setting": "[2]", "result": 0, "unit": "%"}, {"measurement": "Percent of Binding to Mutant Human CD20", "setting": "[3]", "result": 79, "unit": "%"}, {"measurement": "Percent of Binding to Mutant Human CD20", "setting": "[4]", "result": 51, "unit": "%"}, {"measurement": "Percent of Binding to Mutant Human CD20", "setting": "[5]", "result": 30, "unit": "%"}, {"measurement": "Percent of Binding to Mutant Human CD20", "setting": "[6]", "result": 1, "unit": "%"}, {"measurement": "Percent of Binding to Mutant Human CD20", "setting": "[7]", "result": 70, "unit": "%"}, {"measurement": "Percent of Binding to Mutant Human CD20", "setting": "[8]", "result": 1, "unit": "%"}, {"measurement": "Percent of Binding to Mutant Human CD20", "setting": "[9]", "result": 4, "unit": "%"}]}, {"binder": "rituximab (RITUXAN, IDEC Pharmaceuticals Corp.) (antibody, V domains shown) VH: QVQLQQPGAELVKPGASVKMSCKASGYTFTSYNMHWVKQTPGRGLEWIGAIYPGNGDTSYNQKFKGKATLTADKSSSTAYMQLSSLTSEDSAVYYCARSTYYGGDWYFNVWGAGTTVTVSA VL: QIVLSQSPAILSASPGEKVTMTCRASSSVSYIHWFQQKPGSSPKPWIYATSNLASGVPVRFSGSGSGTSYSLTISRVEAEDAATYYCQQWTSNPPTFGGGTKLEIK", "values": [{"measurement": "% Cytotoxicity (CDC, Daudi), 0 hour", "setting": "human CD20 [10]", "result": 98.5, "unit": "%"}, {"measurement": "% Cytotoxicity (CDC, Daudi), 1 hour", "setting": "human CD20 [10]", "result": 86.9, "unit": "%"}, {"measurement": "% Cytotoxicity (CDC, Daudi), 6 hour", "setting": "human CD20 [10]", "result": 16, "unit": "%"}, {"measurement": "Total Mean Fluorescent Intensity", "setting": "human CD20 [11]", "result": 2960}, {"measurement": "% Cytotoxicity (CDC, Daudi), 0 hour", "setting": "human CD20 [12]", "result": 91.9, "unit": "%"}, {"measurement": "% Cytotoxicity (CDC, Daudi), 1 hour", "setting": "human CD20 [12]", "result": 65.3, "unit": "%"}, {"measurement": "% Cytotoxicity (CDC, Daudi), 6 hour", "setting": "human CD20 [12]", "result": 52.1, "unit": "%"}, {"measurement": "% Cytotoxicity (CDC, Daudi), 0 hour", "setting": "human CD20 [13]", "result": 98.3, "unit": "%"}, {"measurement": "% Cytotoxicity (CDC, Daudi), 1 hour", "setting": "human CD20 [13]", "result": 81.1, "unit": "%"}, {"measurement": "% Cytotoxicity (CDC, Daudi), 6 hour", "setting": "human CD20 [13]", "result": 20.5, "unit": "%"}, {"measurement": "CDC, Daudi EC50", "setting": "human CD20 [14]", "result": 0.84, "unit": "nM"}, {"measurement": "CDC, RL EC50", "setting": "human CD20 [14]", "result": "> 50", "unit": "nM"}]}]}
